The target in assay [1] is T1, Norwalk virus-like particles (genogroup I) (Norwalk virus (genogroup I Norovirus), UniProt Q83884 1-530).
T1 construct: also called NV; NVLPs
T1 sequence: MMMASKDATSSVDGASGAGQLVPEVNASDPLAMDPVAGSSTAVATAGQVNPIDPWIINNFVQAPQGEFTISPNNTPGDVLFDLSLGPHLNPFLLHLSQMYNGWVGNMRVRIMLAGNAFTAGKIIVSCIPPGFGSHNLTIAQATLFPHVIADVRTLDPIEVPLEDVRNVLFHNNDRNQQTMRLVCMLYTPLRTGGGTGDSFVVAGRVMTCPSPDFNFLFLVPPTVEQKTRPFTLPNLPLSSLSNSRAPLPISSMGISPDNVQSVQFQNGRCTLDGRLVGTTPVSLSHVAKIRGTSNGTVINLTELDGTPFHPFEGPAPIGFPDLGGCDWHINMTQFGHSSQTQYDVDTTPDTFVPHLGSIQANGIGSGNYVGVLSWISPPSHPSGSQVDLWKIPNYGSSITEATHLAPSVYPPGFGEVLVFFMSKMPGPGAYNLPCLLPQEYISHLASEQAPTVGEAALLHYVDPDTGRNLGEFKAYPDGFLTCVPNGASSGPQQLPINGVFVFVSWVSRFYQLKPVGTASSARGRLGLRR
The assay can be described thus: SPR (BIAcore), VLPs immobilized, dendrimer injected. A general note: In SPR one partner is held on a chip, and binding of the other changes the refractive index at the surface.

Assay [2] concerns the target T2, Houston virus-like particles (genogroup II) (Norovirus genogroup II, Houston strain).
T2 construct: Recombinant VLP; also called HOV
The assay is described as above.

Assay [3] has as its target T3, Snow Mountain virus-like particles (genogroup II) (Norovirus genogroup II, Snow Mountain …).
T3 construct: Recombinant VLP; also called SMV
The description is as above.

The target in assay [4] is T4, Grimsby virus-like particles (genogroup II) (Norovirus genogroup II, Grimsby strain).
T4 construct: Recombinant VLP; also called GRV
The assay is described as above.

The target in assay [5] is T1, Norwalk virus-like particles (genogroup …). The assay can be described thus: ELISA: dendrimer coated at 0.4 mg/mL (32 µM), VLPs added at 2 µg/mL, detection with MAb3912 and goat anti-mouse-HRP, ABTS at 405 nm. (ELISA stands for enzyme-linked immunosorbent assay.)
Assay [6] has the same target. The assay can be described thus: ELISA: dendrimer coated, VLPs added, detection with MAb3912 and goat anti-mouse-HRP, ABTS at 405 nm.

Ends that are not written are not given here.

As for AHFQTHTVPLSL (also: octovalent MAP dendrimer, eight copies on branching lysine core, Octovalent peptide dendrimer (MAP)) [AHFQTHTVPLSL8 (the octovalent dendrimer of SEQ ID NO: 2)], the equilibrium average response was determined as 6750 RU in assay [1], 6710 RU in assay [2], 6430 RU in assay [3] and 6380 RU in assay [4].

Consider RHFQTHTVPLSL (also: octovalent MAP dendrimer, eight copies on branching lysine core, Octovalent peptide dendrimer (MAP)) [RHFQTHTVPLSL8 (the octovalent dendrimer of SEQ ID NO: 1)], for which the binding result in assay [5] is recorded as “binds”.

B1: SREPQYGGPAAD8 (the octovalent dendrimer of SEQ ID NO: 5) (peptide)
peptide branch of the dendrimer: SREPQYGGPAAD
notes: also called nonspecific octovalent dendrimer
B1: in assay [6], the binding result is given as “no binding”.

The values above are taken from patent publication US20110020786A1 (BAYLOR COLLEGE OF MEDICINE, published 2011).
